B1: Protein PALS1 (Homo sapiens), Q8N3R9 (parent)
chain: MTTSHMNGHVTEESDSEVKNVDLASPEEHQKHREMAVDCPGDLGTRMMPIRRSAQLERIRQQQEDMRRRREEEGKKQELDLNSSMRLKKLAQIPPKTGIDNPMFDTEEGIVLESPHYAVKILEIEDLFSSLKHIQHTLVDSQSQEDISLLLQLVQNKDFQNAFKIHNAITVHMNKASPPFPLISNAQDLAQEVQTVLKPVHHKEGQELTALLNTPHIQALLLAHDKVAEQEMQLEPITDERVYESIGQYGGETVKIVRIEKARDIPLGATVRNEMDSVIISRIVKGGAAEKSGLLHEGDEVLEINGIEIRGKDVNEVFDLLSDMHGTLTFVLIPSQQIKPPPAKETVIHVKAHFDYDPSDDPYVPCRELGLSFQKGDILHVISQEDPNWWQAYREGDEDNQPLAGLVPGKSFQQQREAMKQTIEEDKEPEKSGKLWCAKKNKKKRKKVLYNANKNDDYDNEEILTYEEMSLYHQPANRKRPIILIGPQNCGQNELRQRLMNKEKDRFASAVPHTTRSRRDQEVAGRDYHFVSRQAFEADIAAGKFIEHGEFEKNLYGTSIDSVRQVINSGKICLLSLRTQSLKTLRNSDLKPYIIFIAPPSQERLRALLAKEGKNPKPEELREIIEKTREMEQNNGHYFDTAIVNSDLDKAYQELLRLINKLDTEPQWVPSTWLR
partner: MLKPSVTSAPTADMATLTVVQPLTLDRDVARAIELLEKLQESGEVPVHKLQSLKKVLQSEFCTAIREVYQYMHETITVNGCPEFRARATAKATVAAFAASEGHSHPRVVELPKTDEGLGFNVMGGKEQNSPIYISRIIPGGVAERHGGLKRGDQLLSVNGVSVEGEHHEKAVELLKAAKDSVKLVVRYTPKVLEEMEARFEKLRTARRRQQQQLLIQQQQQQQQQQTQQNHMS
B2: CD2 antigen cytoplasmic tail-binding protein 2 (Homo sapiens), O95400 (parent)
chain: MPKRKVTFQGVGDEEDEDEIIVPKKKLVDPVAGSGGPGSRFKGKHSLDSDEEEDDDDGGSSKYDILASEDVEGQEAATLPSEGGVRITPFNLQEEMEEGHFDADGNYFLNRDAQIRDSWLDNIDWVKIRERPPGQRQASDSEEEDSLGQTSMSAQALLEGLLELLLPRETVAGALRRLGARGGGKGRKGPGQPSSPQRLDRLSGLADQMVARGNLGVYQETRERLAMRLKGLGCQTLGPHNPTPPPSLDMFAEELAEEELETPTPTQRGEAESRGDGLVDVMWEYKWENTGDAELYGPFTSAQMQTWVSEGYFPDGVYCRKLDPPGGQFYNSKRIDFDLYT
B3: Isoform 1 of Acetyl-CoA acetyltransferase, cytosolic (Homo sapiens), Q9BWD1-1 (parent)
chain: MNAGSDPVVIVSAARTIIGSFNGALAAVPVQDLGSTVIKEVLKRATVAPEDVSEVIFGHVLAAGCGQNPVRQASVGAGIPYSVPAWSCQMICGSGLKAVCLAVQSIGIGDSSIVVAGGMENMSKAPHLAYLRTGVKIGEMPLTDSILCDGLTDAFHNCHMGITAENVAKKWQVSREDQDKVAVLSQNRTENAQKAGHFDKEIVPVLVSTRKGLIEVKTDEFPRHGSNIEAMSKLKPYFLTDGTGTVTPANASGINDGAAAVVLMKKSEADKRGLTPLARIVSWSQVGVEPSIMGIGPIPAIKQAVTKAGWSLEDVDIFEINEAFAAVSAAIVKELGLNPEKVNIEGGAIALGHPLGASGCRILVTLLHTLERMGRSRGVAALCIGGGMGIAMCVQRE
B4: Zyxin (Homo sapiens), Q15942 (parent)
chain: MAAPRPSPAISVSVSAPAFYAPQKKFGPVVAPKPKVNPFRPGDSEPPPAPGAQRAQMGRVGEIPPPPPEDFPLPPPPLAGDGDDAEGALGGAFPPPPPPIEESFPPAPLEEEIFPSPPPPPEEEGGPEAPIPPPPQPREKVSSIDLEIDSLSSLLDDMTKNDPFKARVSSGYVPPPVATPFSSKSSTKPAAGGTAPLPPWKSPSSSQPLPQVPAPAQSQTQFHVQPQPQPKPQVQLHVQSQTQPVSLANTQPRGPPASSPAPAPKFSPVTPKFTPVASKFSPGAPGGSGSQPNQKLGHPEALSAGTGSPQPPSFTYAQQREKPRVQEKQHPVPPPAQNQNQVRSPGAPGPLTLKEVEELEQLTQQLMQDMEHPQRQNVAVNELCGRCHQPLARAQPAVRALGQLFHIACFTCHQCAQQLQGQQFYSLEGAPYCEGCYTDTLEKCNTCGEPITDRMLRATGKAYHPHCFTCVVCARPLEGTSFIVDQANRPHCVPDYHKQYAPRCSVCSEPIMPEPGRDETVRVVALDKNFHMKCYKCEDCGKPLSIEADDNGCFPLDGHVLCRKCHTARAQT
partner: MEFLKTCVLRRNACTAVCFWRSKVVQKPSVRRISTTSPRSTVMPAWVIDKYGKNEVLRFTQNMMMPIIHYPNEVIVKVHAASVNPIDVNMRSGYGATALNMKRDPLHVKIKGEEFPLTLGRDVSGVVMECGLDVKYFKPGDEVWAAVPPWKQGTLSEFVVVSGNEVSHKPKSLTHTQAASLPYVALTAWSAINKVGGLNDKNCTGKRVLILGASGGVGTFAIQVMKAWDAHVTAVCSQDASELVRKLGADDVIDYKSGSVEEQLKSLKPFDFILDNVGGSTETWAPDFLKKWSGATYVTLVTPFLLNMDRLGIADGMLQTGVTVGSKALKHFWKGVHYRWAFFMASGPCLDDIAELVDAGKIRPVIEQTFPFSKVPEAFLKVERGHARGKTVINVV
B5: PDZ and LIM domain protein 3 (Homo sapiens), Q53GG5 (parent)
chain: MPQTVILPGPAPWGFRLSGGIDFNQPLVITRITPGSKAAAANLCPGDVILAIDGFGTESMTHADAQDRIKAAAHQLCLKIDRGETHLWSPQVSEDGKAHPFKINLESEPQDGNYFEHKHNIRPKPFVIPGRSSGCSTPSGIDCGSGRSTPSSVSTVSTICPGDLKVAAKLAPNIPLEMELPGVKIVHAQFNTPMQLYSDDNIMETLQGQVSTALGETPLMSEPTASVPPESDVYRMLHDNRNEPTQPRQSGSFRVLQGMVDDGSDDRPAGTRSVRAPVTKVHGGSGGAQRMPLCDKCGSGIVGAVVKARDKYRHPECFVCADCNLNLKQKGYFFIEGELYCETHARARTKPPEGYDTVTLYPKA
B6: Myogenin (Homo sapiens), P15173 (parent)
chain: MELYETSPYFYQEPRFYDGENYLPVHLQGFEPPGYERTELTLSPEAPGPLEDKGLGTPEHCPGQCLPWACKVCKRKSVSVDRRRAATLREKRRLKKVNEAFEALKRSTLLNPNQRLPKVEILRSAIQYIERLQALLSSLNQEERDLRYRGGGGPQPGVPSECSSHSASCSPEWGSALEFSANPGDHLLTADPTDAHNLHSLTSIVDSITVEDVSVAFPDETMPN
partner: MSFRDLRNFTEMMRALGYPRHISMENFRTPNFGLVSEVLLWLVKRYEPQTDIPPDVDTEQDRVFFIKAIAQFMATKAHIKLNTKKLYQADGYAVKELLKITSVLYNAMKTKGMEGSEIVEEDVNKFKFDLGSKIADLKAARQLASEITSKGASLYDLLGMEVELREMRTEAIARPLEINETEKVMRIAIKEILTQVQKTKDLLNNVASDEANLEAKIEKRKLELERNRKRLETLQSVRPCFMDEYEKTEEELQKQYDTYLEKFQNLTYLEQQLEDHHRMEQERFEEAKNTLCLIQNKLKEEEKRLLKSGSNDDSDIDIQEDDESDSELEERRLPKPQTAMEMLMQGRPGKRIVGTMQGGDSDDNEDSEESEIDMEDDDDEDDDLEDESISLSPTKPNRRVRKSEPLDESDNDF
B7: Isoform 1 of Aminoacylase-1 (Homo sapiens), Q03154-1 (parent)
chain: MTSKGPEEEHPSVTLFRQYLRIRTVQPKPDYGAAVAFFEETARQLGLGCQKVEVAPGYVVTVLTWPGTNPTLSSILLNSHTDVVPVFKEHWSHDPFEAFKDSEGYIYARGAQDMKCVSIQYLEAVRRLKVEGHRFPRTIHMTFVPDEEVGGHQGMELFVQRPEFHALRAGFALDEGIANPTDAFTVFYSERSPWWVRVTSTGRPGHASRFMEDTAAEKLHKVVNSILAFREKEWQRLQSNPHLKEGSVTSVNLTKLEGGVAYNVIPATMSASFDFRVAPDVDFKAFEEQLQSWCQAAGEGVTLEFAQKWMHPQVTPTDDSNPWWAAFSRVCKDMNLTLEPEIMPAATDNRYIRAVGVPALGFSPMNRTPVLLHDHDERLHEAVFLRGVDIYTRLLPALASVPALPSDS
partner: B7 chain
B8: NF-kappa-B inhibitor delta (Homo sapiens), Q8NI38 (parent)
chain: MEAGPWRVSAPPSGPPQFPAVVPGPSLEVARAHMLALGPQQLLAQDEEGDTLLHLFAARGLRWAAYAAAEVLQVYRRLDIREHKGKTPLLVAAAANQPLIVEDLLNLGAEPNAADHQGRSVLHVAATYGLPGVLLAVLNSGVQVDLEARDFEGLTPLHTAILALNVAMRPSDLCPRVLSTQARDRLDCVHMLLQMGANHTSQEIKSNKTVLHLAVQAANPTLVQLLLELPRGDLRTFVNMKAHGNTALHMAAALPPGPAQEAIVRHLLAAGADPTLRNLENEQPVHLLRPGPGPEGLRQLLKRSRVAPPGLSS
B9: Spermatogenic leucine zipper protein 1 (Homo sapiens), Q9BXG8 (parent)
chain: MASSAKSAEMPTISKTVNPTPDPHQEYLDPRITIALFEIGSHSPSSWGSLPFLKNSSHQVTEQQTAQKFNNLLKEIKDILKNMAGFEEKITEAKELFEETNITEDVSAHKENIRGLDKINEMLSTNLPVSLAPEKEDNEKKQEMILETNITEDVSAHKENIRGLDKINEMLSTNLPVSLAPEKEDNEKKQQMIMENQNSENTAQVFARDLVNRLEEKKVLNETQQSQEKAKNRLNVQEETMKIRNNMEQLLQEAEHWSKQHTELSKLIKSYQKSQKDISETLGNNGVGFQTQPNNEVSAKHELEEQVKKLSHDTYSLQLMAALLENECQILQQRVEILKELHHQKQGTLQEKPIQINYKQDKKNQKPSEAKKVEMYKQNKQAMKGTFWKKDRSCRSLDVCLNKKACNTQFNIHVARKALRGKMRSASSLR
partner: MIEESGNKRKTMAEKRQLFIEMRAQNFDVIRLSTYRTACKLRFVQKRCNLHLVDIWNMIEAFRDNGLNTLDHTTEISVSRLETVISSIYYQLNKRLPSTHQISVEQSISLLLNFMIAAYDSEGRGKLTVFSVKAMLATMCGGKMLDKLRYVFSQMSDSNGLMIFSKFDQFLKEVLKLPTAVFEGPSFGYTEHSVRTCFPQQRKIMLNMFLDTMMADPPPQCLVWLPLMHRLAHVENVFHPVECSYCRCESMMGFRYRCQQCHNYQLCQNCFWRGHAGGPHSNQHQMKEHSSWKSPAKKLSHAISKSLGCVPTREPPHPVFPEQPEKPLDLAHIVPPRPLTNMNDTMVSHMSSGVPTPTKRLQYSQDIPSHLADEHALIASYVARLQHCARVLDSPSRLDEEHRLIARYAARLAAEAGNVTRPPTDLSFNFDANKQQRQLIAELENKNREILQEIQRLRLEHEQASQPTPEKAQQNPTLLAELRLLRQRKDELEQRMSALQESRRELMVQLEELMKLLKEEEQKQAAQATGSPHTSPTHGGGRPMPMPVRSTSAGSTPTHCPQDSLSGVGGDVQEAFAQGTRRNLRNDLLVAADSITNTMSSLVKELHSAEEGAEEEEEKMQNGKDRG

Variants of: B1
Conditions: with lin7a_human LIN7A

**Q.** Which “effect of a mutation on the interaction” value does the source give for S141Y here?
**A.** The value was “with no effect”.

Variants of: B2
Conditions: with rsmb_human SNRPB

**Q.** How did the “effect of a mutation on the interaction” value turn out when T262I was run?
**A.** The value was “with no effect”.

Variants of: B3
Conditions: with lnx1_human LNX1, Q8TBB1
Sequence of lnx1_human LNX1, Q8TBB1 (Q8TBB1 whole entry): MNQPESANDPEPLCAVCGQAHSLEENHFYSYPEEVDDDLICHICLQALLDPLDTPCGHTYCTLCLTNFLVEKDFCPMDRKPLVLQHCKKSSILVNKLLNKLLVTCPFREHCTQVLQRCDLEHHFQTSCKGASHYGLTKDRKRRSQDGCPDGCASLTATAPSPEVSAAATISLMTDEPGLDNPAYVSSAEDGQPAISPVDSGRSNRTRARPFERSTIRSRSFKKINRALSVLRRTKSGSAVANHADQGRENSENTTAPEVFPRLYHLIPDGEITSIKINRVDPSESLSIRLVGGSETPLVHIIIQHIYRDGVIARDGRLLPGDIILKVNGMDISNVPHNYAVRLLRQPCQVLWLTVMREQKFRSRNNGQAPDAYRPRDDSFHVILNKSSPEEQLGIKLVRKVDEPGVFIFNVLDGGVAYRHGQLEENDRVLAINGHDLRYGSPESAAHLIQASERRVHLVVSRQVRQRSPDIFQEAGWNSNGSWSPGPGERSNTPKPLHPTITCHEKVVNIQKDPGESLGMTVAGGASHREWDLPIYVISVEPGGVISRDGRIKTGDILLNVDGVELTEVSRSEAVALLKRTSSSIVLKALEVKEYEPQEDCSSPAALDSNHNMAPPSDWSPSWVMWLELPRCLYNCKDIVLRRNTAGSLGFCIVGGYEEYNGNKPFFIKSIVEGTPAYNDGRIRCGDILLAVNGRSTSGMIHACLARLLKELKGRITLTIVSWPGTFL

**Q.** How did the “effect of a mutation on the interaction” value turn out when G161S was run?
**A.** The value was “with no effect”.

Variants of: B4
Conditions: with rt4i1_human RTN4IP1, Q8WWV3

**Q.** Which “effect of a mutation on the interaction” value does the source give for R489W here?
**A.** Its value is “with no effect”.

**Q.** How did the “effect of a mutation on the interaction” value turn out when R563Q was run?
**A.** Its value is “with no effect”.

Variants of: B5
Conditions: with actn2_human ACTN2, P35609
Sequence of actn2_human ACTN2, P35609 (P35609 whole entry): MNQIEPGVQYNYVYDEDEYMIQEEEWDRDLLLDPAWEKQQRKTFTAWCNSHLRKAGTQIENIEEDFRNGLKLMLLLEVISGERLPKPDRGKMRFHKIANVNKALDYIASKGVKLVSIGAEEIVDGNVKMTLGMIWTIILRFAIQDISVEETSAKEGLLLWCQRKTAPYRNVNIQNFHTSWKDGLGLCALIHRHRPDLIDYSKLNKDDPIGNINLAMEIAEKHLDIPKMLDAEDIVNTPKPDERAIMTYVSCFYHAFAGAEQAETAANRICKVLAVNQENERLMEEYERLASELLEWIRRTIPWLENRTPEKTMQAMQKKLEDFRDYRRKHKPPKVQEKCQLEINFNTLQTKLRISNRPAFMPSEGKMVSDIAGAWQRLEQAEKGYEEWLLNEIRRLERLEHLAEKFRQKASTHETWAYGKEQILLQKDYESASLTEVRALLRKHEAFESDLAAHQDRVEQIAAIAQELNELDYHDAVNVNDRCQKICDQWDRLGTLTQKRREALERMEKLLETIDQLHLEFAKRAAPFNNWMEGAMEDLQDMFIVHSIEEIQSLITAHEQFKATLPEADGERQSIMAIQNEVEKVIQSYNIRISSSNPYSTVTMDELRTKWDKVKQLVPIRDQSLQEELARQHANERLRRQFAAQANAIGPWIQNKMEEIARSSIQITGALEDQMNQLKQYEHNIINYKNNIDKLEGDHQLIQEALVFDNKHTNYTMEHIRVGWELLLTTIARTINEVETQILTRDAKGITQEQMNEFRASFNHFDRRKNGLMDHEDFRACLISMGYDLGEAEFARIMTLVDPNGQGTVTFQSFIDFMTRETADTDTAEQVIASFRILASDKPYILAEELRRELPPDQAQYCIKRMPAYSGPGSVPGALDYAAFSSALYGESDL

**Q.** T245I was tested. Which “effect of a mutation on the interaction” value did it give?
**A.** The value was “with no effect”.

**Q.** For T279M, which “effect of a mutation on the interaction” value is on record?
**A.** The value was “with no effect”.

Variants of: B6
Conditions: with clua1_human CLUAP1, Q96AJ1

**Q.** How did the “effect of a mutation on the interaction” value turn out when R147C was run?
**A.** Its value is “with no effect”.

**Q.** For P49H, which “effect of a mutation on the interaction” value is on record?
**A.** The value was “with no effect”.

Variants of: B7
Conditions: with acy1_human ACY1, Q03154

**Q.** E381D was tested. Which “effect of a mutation on the interaction” value did it give?
**A.** Its value is “with no effect”.

Variants of: B8
Conditions: with ssxt_human SS18, Q15532
Sequence of ssxt_human SS18, Q15532 (Q15532 whole entry): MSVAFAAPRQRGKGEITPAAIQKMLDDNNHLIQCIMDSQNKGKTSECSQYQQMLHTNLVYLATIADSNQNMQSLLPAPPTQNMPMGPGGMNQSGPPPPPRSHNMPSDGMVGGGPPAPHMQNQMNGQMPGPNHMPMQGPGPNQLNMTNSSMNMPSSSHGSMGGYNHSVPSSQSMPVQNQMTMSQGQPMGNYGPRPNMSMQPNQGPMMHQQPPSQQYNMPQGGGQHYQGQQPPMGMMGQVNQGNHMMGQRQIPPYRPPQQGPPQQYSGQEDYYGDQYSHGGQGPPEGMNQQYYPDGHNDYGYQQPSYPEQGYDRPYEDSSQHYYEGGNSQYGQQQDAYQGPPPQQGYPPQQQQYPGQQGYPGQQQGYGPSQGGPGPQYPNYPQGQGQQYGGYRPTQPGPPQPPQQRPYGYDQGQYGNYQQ

**Q.** With V29A as the variant, how does the “effect of a mutation on the interaction” value read?
**A.** The value was “with no effect”.

Variants of: B9
Conditions: with dtnb_human DTNB

**Q.** Which “effect of a mutation on the interaction” value does the source give for H301P here?
**A.** The value was “with no effect”.

From IntAct's records for PubMed 31515488
